The target of series [1] is T1, RTEL1∆762R1264H (human, UniProt Q9NZ71-6 762-1300, R1264H).
T1 sequence: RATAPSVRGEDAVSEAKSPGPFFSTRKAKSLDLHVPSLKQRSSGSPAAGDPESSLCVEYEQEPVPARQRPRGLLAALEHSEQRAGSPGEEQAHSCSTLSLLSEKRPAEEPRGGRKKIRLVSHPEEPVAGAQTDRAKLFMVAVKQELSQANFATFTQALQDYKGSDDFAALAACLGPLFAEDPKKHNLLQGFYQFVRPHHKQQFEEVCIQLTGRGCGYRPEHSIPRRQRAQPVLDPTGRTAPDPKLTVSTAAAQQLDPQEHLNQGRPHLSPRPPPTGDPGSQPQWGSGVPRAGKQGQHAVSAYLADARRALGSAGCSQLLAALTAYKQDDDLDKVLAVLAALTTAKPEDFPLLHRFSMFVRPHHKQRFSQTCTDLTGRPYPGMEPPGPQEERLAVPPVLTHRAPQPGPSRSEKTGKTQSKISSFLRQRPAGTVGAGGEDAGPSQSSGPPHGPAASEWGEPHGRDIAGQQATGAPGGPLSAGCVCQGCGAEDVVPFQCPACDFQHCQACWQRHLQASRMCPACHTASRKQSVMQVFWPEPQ
As to the kind of experiment: competition (fluorescence anisotropy); vs FAM-TERRA-MUT, 200 nM; 20 mM Tris pH 7.5, 50 mM KCl, 0.5 mM TCEP, 0.5 mM MgCl2, 10% glycerol, 0.1% IGEPAL, room temperature 30 min; oligos refolded in 10 mM Tris pH 7.5, 100 mM KCl; EMSA legends give 150 or 300 mM KCl. The settings on record: protein: recombinant; tags: 6xHis; no G4. For orientation: In EMSA bound probe runs differently from free probe, usually more slowly.

For series [2], the target named is T2, RTEL1∆762-1097 (human, UniProt Q9NZ71-6 762-1097).
T2 sequence: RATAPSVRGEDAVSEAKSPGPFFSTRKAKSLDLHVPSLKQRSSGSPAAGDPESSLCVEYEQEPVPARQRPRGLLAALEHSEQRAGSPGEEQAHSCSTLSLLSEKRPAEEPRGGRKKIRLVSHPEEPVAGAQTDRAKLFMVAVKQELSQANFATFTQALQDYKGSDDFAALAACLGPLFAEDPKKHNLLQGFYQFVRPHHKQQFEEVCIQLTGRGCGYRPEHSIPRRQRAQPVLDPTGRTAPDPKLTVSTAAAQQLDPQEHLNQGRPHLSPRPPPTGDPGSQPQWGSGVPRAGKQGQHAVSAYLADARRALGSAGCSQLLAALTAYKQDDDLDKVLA
The description is as above. The settings on record: protein: recombinant; tags: 6xHis; no G4.

Series [3] has as its target T3, RTEL1∆762 (human, UniProt Q9NZ71-6 762-1300).
T3 sequence: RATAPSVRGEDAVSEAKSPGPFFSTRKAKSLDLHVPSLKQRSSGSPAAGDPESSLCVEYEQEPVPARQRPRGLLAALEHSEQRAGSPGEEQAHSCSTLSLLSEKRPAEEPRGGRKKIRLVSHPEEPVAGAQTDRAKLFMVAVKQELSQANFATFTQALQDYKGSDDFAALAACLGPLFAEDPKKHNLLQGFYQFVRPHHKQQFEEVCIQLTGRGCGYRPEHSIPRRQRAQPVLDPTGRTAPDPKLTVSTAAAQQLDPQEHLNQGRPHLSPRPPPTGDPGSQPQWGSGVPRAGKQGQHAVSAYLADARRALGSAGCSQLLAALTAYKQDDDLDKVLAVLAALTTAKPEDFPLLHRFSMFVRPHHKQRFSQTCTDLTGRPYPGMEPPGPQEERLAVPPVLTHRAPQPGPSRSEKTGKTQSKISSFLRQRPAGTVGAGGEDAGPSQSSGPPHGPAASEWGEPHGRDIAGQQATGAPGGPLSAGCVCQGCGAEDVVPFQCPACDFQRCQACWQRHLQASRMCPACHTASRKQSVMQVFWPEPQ
Kind of series: competition (fluorescence anisotropy); vs FAM-TERRA-MUT, 1 uM; 20 mM Tris pH 7.5, 50 mM KCl, 0.5 mM TCEP, 0.5 mM MgCl2, 10% glycerol, 0.1% IGEPAL, room temperature 30 min; oligos refolded in 10 mM Tris pH 7.5, 100 mM KCl; EMSA legends give 150 or 300 mM KCl. Particulars: protein: recombinant; tags: 6xHis; chain copies: 2; no G4.

The target of series [4] is T1, RTEL1∆762R1264H. The series is described as above. The settings on record: protein: recombinant; tags: 6xHis; no G4.
Series [5] addresses T2, RTEL1∆762-1097. The series is described as above. Particulars: protein: recombinant; tags: 6xHis; no G4.
Series [6] has as its target T3, RTEL1∆762. As to the kind of experiment: competition (fluorescence anisotropy); vs FAM-TERRA-MUT, 200 nM; error in main text misprinted as 0.74 nM; 20 mM Tris pH 7.5, 50 mM KCl, 0.5 mM TCEP, 0.5 mM MgCl2, 10% glycerol, 0.1% IGEPAL, room temperature 30 min; oligos refolded in 10 mM Tris pH 7.5, 100 mM KCl; EMSA legends give 150 or 300 mM KCl. The settings on record: protein: recombinant; tags: 6xHis; chain copies: 2; no G4.

A word on the Ki: it is the dissociation constant of the complex between target and ligand, obtained from inhibition or displacement.

B1: TERRA-MUT competitor (ssRNA)
RNA: UUACCGUUACCGUUACCGUUACCG
As to B1, the Ki was 850 ± 125 nM with RTEL1∆762R1264H [1]; 1650 ± 377 nM with RTEL1∆762-1097 [2]; 1450 ± 73 nM with RTEL1∆762 [3]; 3810 ± 1450 nM with RTEL1∆762R1264H [4]; 16100 ± 15000 nM in the series with RTEL1∆762-1097 [5]; 442 ± 74 nM with RTEL1∆762 [6].

The record behind these values is publication PMC8140157, “RTEL1 influences the abundance and localization of TERRA RNA” (Nature Communications, 2020).
